Measurements from patent US20200032265, “Oligonucleotide Probes and Uses Thereof” (CARIS SCIENCE, INC., published 2020).

Target: T1, EpCAM (UniProt P16422 P16422:24-265)
T1 sequence: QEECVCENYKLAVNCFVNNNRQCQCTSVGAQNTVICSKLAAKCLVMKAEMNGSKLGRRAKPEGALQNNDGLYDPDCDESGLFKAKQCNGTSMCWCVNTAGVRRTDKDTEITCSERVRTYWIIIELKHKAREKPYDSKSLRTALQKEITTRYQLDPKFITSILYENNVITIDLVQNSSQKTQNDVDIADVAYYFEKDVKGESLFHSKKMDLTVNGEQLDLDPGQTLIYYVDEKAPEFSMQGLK
Assay: stated only; no assay details

B1: Aptamer 4 (ssDNA)
DNA: CCCCCCGAATCACATGACTTGGGCGGGGGTCG
modifications: 6-T 3' tail as spacer for biotin (shown in figure)
  binding result: binds
